Results from PMC6769490, “Protein Engineering of Multi-Modular Transcription Factor Alcohol Dehydrogenase Repressor 1 (Adr1p), a Tool for Dissecting In Vitro Transcription Activation” (Biomolecules, 2019).
“And” between values parts separate entries of the source, which are not always exact repeats. Identical values can stand only once.

Tests used:
[1] = target: the molecule itself; assay: native gel or EMSA; DNA binding assay with half site dsDNA; partially purified His-tagged Adr1-165 from bacteria (Supplementary Figure S1d, lanes 12-14)
Adr1-DBD (untagged) [2] = target: T1, Adr1-DBD (untagged) (Saccharomyces cerevisiae, UniProt P07248 75-178); assay: EMSA; 5 mM CHAPS, Zn acetate; two smeared bands; 40 mM Na phosphate pH 7.5, 40 mM NaCl, 10% glycerol, 18 uM Zn acetate (+/- 5 mM CHAPS, DTT, spermine), 30 min 4 C; HPLC-purified: 20 mM phosphate pH 7.0, 40 mM; settings: protein: recombinant; tags: none; label: 33P (5' kinase label); self-complementary duplex, 5' overhang 4 nt at both ends
T1 sequence: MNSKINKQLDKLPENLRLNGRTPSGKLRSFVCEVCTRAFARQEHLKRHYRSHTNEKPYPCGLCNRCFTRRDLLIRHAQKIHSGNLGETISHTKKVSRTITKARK

miniAdr1-BL (untagged) [3] = target: T2, miniAdr1-BL (untagged) (Saccharomyces cerevisiae, UniProt P07248 75-471, del1-74;del179-418;del472-1323); assay: EMSA; 5 mM CHAPS, Zn acetate; protein 3.16e-8 to 1e-6 M, DNA 1e-8 M; 40 mM Na phosphate pH 7.5, 40 mM NaCl, 10% glycerol, 18 uM Zn acetate (+/- 5 mM CHAPS, DTT, spermine), 30 min 4 C; HPLC-purified: 20 mM phosphate pH 7.0, 40 mM; settings: protein: recombinant; tags: none; chain copies: 2; label: 33P (5' kinase label); self-complementary duplex, 5' overhang 4 nt at both ends
T2 sequence: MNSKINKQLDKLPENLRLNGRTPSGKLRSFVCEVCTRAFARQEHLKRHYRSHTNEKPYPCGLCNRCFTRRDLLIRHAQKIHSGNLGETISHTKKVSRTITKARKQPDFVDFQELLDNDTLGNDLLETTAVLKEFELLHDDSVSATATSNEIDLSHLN

miniAdr1-BL (untagged) [4] = target: T2, miniAdr1-BL (untagged); assay: EMSA; 5 mM CHAPS; hairpin not competent for binding; 40 mM Na phosphate pH 7.5, 40 mM NaCl, 10% glycerol, 18 uM Zn acetate (+/- 5 mM CHAPS, DTT, spermine), 30 min 4 C; HPLC-purified: 20 mM phosphate pH 7.0, 40 mM; settings: protein: recombinant; tags: none; chain copies: 2; label: 33P; hairpin of a single strand, 5' overhang 4 nt
[5] = target: the molecule itself; assay: native gel or EMSA; N-PAGE/EMSA with half site dsDNA (one binding site), no CHAPS; 20, 40 and 80 pmol protein; stoichiometric mixture of both proteins (40 pmol) in lane 7
miniAdr1-BL (untagged) [6] = target: T2, miniAdr1-BL (untagged); assay: EMSA; no CHAPS, Zn acetate; mostly dimer; 40 mM Na phosphate pH 7.5, 40 mM NaCl, 10% glycerol, 18 uM Zn acetate (+/- 5 mM CHAPS, DTT, spermine), 30 min 4 C; HPLC-purified: 20 mM phosphate pH 7.0, 40 mM; settings: protein: recombinant; tags: none; chain copies: 2; label: 33P or none (ethidium bromide); 5' overhang 1 nt at both ends
Adr1-DBD (untagged) [7] = target: T1, Adr1-DBD (untagged); assay: EMSA; no CHAPS, Zn acetate; mostly monomer; 40 mM Na phosphate pH 7.5, 40 mM NaCl, 10% glycerol, 18 uM Zn acetate (+/- 5 mM CHAPS, DTT, spermine), 30 min 4 C; HPLC-purified: 20 mM phosphate pH 7.0, 40 mM; settings: protein: recombinant; tags: none; label: 33P or none (ethidium bromide); 5' overhang 1 nt at both ends
His-Adr1-165 = target: T3, His-Adr1-165 (Saccharomyces cerevisiae, UniProt P07248 1-165); assay: EMSA; CM + heparin purified; monomer and dimer; 40 mM Na phosphate pH 7.5, 40 mM NaCl, 10% glycerol, 18 uM Zn acetate (+/- 5 mM CHAPS, DTT, spermine), 30 min 4 C; HPLC-purified: 20 mM phosphate pH 7.0, 40 mM; settings: protein: recombinant; tags: His-tag; label: 33P or none (ethidium bromide); 5' overhang 1 nt at both ends
T3 sequence: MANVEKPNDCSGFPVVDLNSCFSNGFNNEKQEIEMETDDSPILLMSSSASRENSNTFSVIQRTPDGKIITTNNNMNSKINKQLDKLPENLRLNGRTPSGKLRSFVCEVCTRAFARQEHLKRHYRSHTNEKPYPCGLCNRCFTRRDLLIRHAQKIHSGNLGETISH

[8] = target: the molecule itself; assay: SEC; miniAdr1-BL alone, freshly purified and concentrated, no DNA; Superdex G75 on HPLC, 50 mM Na/K phosphate pH 6.9, 150 mM NaCl, 4 mM TCEP, 5 mM CHAPS, 5% glycerol, 3.5 mM spermine, 0.018 mM Zn acetate; 0.4 mL/min; masses from a calibration curve

B1: His-tagged Adr1-165 (residues 1-165) (domain or fragment, Saccharomyces cerevisiae, UniProt P07248 1-165, looked up)
chain: MANVEKPNDCSGFPVVDLNSCFSNGFNNEKQEIEMETDDSPILLMSSSASRENSNTFSVIQRTPDGKIITTNNNMNSKINKQLDKLPENLRLNGRTPSGKLRSFVCEVCTRAFARQEHLKRHYRSHTNEKPYPCGLCNRCFTRRDLLIRHAQKIHSGNLGETISH
notes: Alcohol dehydrogenase repressor 1 (Adr1p), Saccharomyces cerevisiae, UniProt P07248; residues 1-165, comprising only TAD I; also called HisAdr1-165; His-Adr1-165; source: E. coli BL21(DE3), pET28b, partially purified
With B1 the “stoichiometry N” value [1] was 2.

B2: Palindromic UAS1 (dsDNA)
DNA 1: CCGGCCTCTCCAACTTATAAGTTGGAGAGG
DNA 2: CCGGCCTCTCCAACTTATAAGTTGGAGAGG
B2: binds (Adr1-DBD (untagged) [2]); binds (miniAdr1-BL (untagged) [3]).

CCGGCCTCTCCAACTTATAAGTTGGAGAGG (structured_DNA) [Palindromic UAS1 hairpin]: no binding (miniAdr1-BL (untagged) [4]).

B3: Adr1-DBD (residues 75-178), untagged (domain or fragment, Saccharomyces cerevisiae, UniProt P07248 75-178, looked up)
chain: MNSKINKQLDKLPENLRLNGRTPSGKLRSFVCEVCTRAFARQEHLKRHYRSHTNEKPYPCGLCNRCFTRRDLLIRHAQKIHSGNLGETISHTKKVSRTITKARK
notes: Alcohol dehydrogenase repressor 1 (Adr1p), Saccharomyces cerevisiae, UniProt P07248; Printed mass 12.4 kDa; also called construct (5); source: Komagataella pastoris X-33, purified (CM sepharose, SEC)
With B3 the “stoichiometry N” value [5] was 2.

B4: Half site UAS1 (dsDNA)
DNA 1: TCCGGGCATCTCCAACTTA
DNA 2: CTAAGTTGGAGATGCCCGG
B4: binds (miniAdr1-BL (untagged) [6]); binds (Adr1-DBD (untagged) [7]); binds (His-Adr1-165).

B5: miniAdr1-BL (Adr1_Δ179-418), untagged (domain or fragment, Saccharomyces cerevisiae, UniProt P07248 75-471, looked up)
chain: MNSKINKQLDKLPENLRLNGRTPSGKLRSFVCEVCTRAFARQEHLKRHYRSHTNEKPYPCGLCNRCFTRRDLLIRHAQKIHSGNLGETISHTKKVSRTITKARKQPDFVDFQELLDNDTLGNDLLETTAVLKEFELLHDDSVSATATSNEIDLSHLN
notes: Alcohol dehydrogenase repressor 1 (Adr1p), Saccharomyces cerevisiae, UniProt P07248; residues 75-178 (PAR-TAD I with the basic linker 158-178) directly linked to residues 419-471 (core of TAD III); TAD I and TAD III fragments were ligated through inserted BamHI sites; Printed mass 18 kDa; also called construct (4); basic linker construct; source: Komagataella pastoris X-33, cytoplasm, purified …
With B5 the “stoichiometry N” value [5] was 2 and the “stoichiometry N” value [8] was ~2 and ~3.
